Assay [1] concerns the target T1, human vascular endothelial growth factor receptor-2 Fc chimera (KDR-Fc) (human, UniProt P35968 20-764).
T1 construct: range 1-764; also called human VEGFR-2; VEGF-R2-Fc; not shown: human IgG1 Fc
Briefly: radioactive equilibrium binding, 1 nM KDR-Fc. In a few lines: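 Tracer: ³⁵S-Met protein from reticulocyte lysate, Flag-bead purified, no nucleic acid tail. 0.2/0.5 nM binder + 0–200 nM receptor-Fc, 30° C 1 h, buffer B; Protein A bead capture 10 min RT; 0.1 M KOH elution; scintillation count.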
T1 sequence (P35968 20-764 limits assumed, change not shown, form in doubt): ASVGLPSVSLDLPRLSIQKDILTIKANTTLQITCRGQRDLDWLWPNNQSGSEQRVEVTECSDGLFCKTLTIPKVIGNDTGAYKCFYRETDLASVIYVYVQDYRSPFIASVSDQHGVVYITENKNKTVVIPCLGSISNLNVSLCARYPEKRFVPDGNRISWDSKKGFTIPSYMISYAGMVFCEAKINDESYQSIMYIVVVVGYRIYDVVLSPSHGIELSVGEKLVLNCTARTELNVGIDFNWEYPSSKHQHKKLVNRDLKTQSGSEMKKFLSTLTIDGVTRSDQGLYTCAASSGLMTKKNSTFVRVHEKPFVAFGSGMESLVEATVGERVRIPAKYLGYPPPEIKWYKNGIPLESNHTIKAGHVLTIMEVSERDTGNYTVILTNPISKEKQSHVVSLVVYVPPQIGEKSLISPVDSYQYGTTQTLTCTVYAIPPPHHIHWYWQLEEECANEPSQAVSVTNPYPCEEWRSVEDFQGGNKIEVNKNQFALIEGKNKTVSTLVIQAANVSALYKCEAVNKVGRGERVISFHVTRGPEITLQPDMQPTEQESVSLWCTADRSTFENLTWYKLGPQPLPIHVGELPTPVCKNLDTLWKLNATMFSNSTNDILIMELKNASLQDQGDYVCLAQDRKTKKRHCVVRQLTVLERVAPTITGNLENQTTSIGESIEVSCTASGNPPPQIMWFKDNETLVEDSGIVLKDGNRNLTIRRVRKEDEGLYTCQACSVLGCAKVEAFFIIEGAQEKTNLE

For assay [2], the target named is T2, mouse vascular endothelial growth factor receptor-2 Fc chimera (Flk-1-Fc) (mouse, UniProt P35918 20-762).
T2 construct: Bought from R&D Systems; also called mouse VEGFR-2; not shown: Fc part of the purchased chimera, not specified
T2 sequence (P35918 20-762, change not shown): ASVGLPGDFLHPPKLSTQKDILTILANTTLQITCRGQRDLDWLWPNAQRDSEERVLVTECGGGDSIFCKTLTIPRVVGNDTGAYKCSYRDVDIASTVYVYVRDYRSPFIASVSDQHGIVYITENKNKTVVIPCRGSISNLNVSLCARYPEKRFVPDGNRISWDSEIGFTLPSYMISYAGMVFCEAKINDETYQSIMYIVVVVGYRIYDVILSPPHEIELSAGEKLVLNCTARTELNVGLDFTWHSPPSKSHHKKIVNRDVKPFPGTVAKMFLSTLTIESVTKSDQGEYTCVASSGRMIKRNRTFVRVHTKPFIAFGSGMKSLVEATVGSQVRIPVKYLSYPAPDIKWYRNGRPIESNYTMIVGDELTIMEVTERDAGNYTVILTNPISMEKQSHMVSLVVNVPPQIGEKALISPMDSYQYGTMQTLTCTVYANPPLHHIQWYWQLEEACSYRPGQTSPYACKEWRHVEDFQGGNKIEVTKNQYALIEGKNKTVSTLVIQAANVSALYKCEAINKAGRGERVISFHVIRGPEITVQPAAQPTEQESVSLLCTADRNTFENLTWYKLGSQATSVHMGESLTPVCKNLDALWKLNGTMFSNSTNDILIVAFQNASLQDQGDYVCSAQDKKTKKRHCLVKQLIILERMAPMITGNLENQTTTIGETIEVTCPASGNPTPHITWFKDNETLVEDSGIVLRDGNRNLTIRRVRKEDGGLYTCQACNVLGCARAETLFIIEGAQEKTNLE
Put plainly: radioactive equilibrium binding assay, 1 nM Flk-1-Fc, % of input bound. As to the method:
(§1) To prepare ³⁵S-labeled binding proteins for analysis, mRNA was prepared as described above for RNA-protein fusion production but the linker ligation step was omitted. The mRNA was expressed using rabbit reticulocyte lysate translation kit (Ambion) in the presence of ³⁵S-labeled Met at 30° C. for 1 hour. Expressed protein was purified on M2-agarose Flag beads (Sigma) as described above. This procedure produced the encoded protein without the nucleic acid tail. In a direct binding assay, VEGF-R2-Fc fusions in concentrations ranging from 0 to 200 nM were added to a constant concentration of the purified protein (0.2 or 0.5 nM) and incubated at 30° C. for 1 hour in buffer B. The receptor-binder complexes were captured using Protein A magnetic beads for another 10 minutes at room temperature using a Kingfisher™ The beads were washed with six reaction volumes of buffer B. The protein was eluted from the beads with 100 μL of 0.1 M KOH. […] of the reaction mixture and elution were dried onto a LumaPlate-96 (Packard) and the amount of ³⁵S on the plate was measured using a TopCount NXT instrument (Packard). The amount of fibronectin-based scaffold protein bound to the target was estimated as a percent of radioactivity eluted from Protein A magnetic beads compare to radioactivity in the reaction mixture. Nonspecific binding of fibronectin-based scaffold proteins to the beads was determined by measuring binding in the absence of KDR-Fc and represented less than 1-2% of the input. Specific binding was obtained through subtraction of nonspecific binding from total binding. Data was analyzed using the GraphPad Prizm software (GraphPad Software, Inc, San Diego, Calif.), fitted using a one site, non-linear binding equation.

Assay [3] deals with T3, human vascular endothelial growth factor receptor-2 Fc chimera (KDR-Fc) (human, UniProt P35968 20-764).
T3 construct: range 1-764; also called human VEGFR-2; not shown: human IgG1 Fc
Briefly: radioactive equilibrium binding assay, 1 nM KDR-Fc, % of input bound. The method, then:
as §1
T3 sequence (P35968 20-764 limits assumed, change not shown, form in doubt): as the sequence (P35968 20-764 limits assumed, change not shown, form in doubt) above

Changes are numbered by the printed parent chain.

B1: 2′E4-PR4 (designed binder)
chain: VSDVPRDLEVVAATPTSLLISWRHPHFPTRYYRITYGETGGNSPVQEFTVPLQPPTATISGLKPGVDYTITGYAVTVHWNGHELMTPISINYRT
notes: WT N-terminus
On to B1, for which the “Binding to 1 nM KDR, %” value in assay [1] was determined as 22%.

B2: 2′H4-PR4 (designed binder)
chain: B1 chain with H78G, W79P, G81E, H82R, E83M
notes: WT N-terminus
With B2, in assay [1], the “Binding to 1 nM KDR, %” value was 17%.

B3: 2′D6-PR4 (designed binder)
chain: B1 chain with H78T, W79H, E83P
notes: WT N-terminus
B3: the “Binding to 1 nM KDR, %” value in assay [1] stood at 22%.

B4: 2′C6-PR4 (designed binder)
chain: B1 chain with V77M, H78G, W79F, N80M, G81A, T86V
notes: WT N-terminus
For the molecule B4, the “Binding to 1 nM KDR, %” value in assay [1] was 16%.

B5: A3 (designed binder)
chain: EVVAATPTSLLISWRHPHFPTRYYRITYGETGGNSPVQEFTVPLQPPTATISGLKPGVDYTITGYAVTDGWNGKMLSVPISINYRT
notes: 10Fn3 clone, Del 1-8
Consider B5, for which the “Binding to 1 nM Flk-1, %” value in assay [2] came to 7%. Besides, the “Binding to 1 nM KDR, %” value in assay [3] was found to be 33%.

B6: A4 (designed binder)
chain: B5 chain with W71Y, G73D, K74R, M75L, S77F, V78I
notes: 10Fn3 clone, Del 1-8
On to B6, for which, in assay [2], the “Binding to 1 nM Flk-1, %” value is 2%. For the same molecule, the “Binding to 1 nM KDR, %” value in assay [3] worked out at 46%.

B7: 4′B8 PR4 (designed binder)
chain: B5 chain with D69V, G70A, W71Q, G73D, K74H, M75K, S77F, V78I
notes: Del 1-8
As to B7, in assay [1], the “Binding to 1 nM KDR, %” value is 20%.

B8: 4F4 PR3 (designed binder)
chain: B5 chain with D69L, G70A, W71Q, G73D, K74R, M75E, S77I, V78T
notes: Del 1-8
In the case of B8, in assay [1], the “Binding to 1 nM KDR, %” value is 15%.

B9: A9 (designed binder)
chain: B5 chain with D69E, G73D, K74R, M75E, S77F
notes: 10Fn3 clone, Del 1-8
For the molecule B9, in assay [2], the “Binding to 1 nM Flk-1, %” value is 4%. The “Binding to 1 nM KDR, %” value in assay [3] stood at 31%.

B10: 4′C9 PR4 (designed binder)
chain: B5 chain with D69L, W71P, G73D, K74H, M75E, S77M, V78T
notes: Del 1-8
As to B10, in assay [1], the “Binding to 1 nM KDR, %” value stood at 29%.

B11: F12 (designed binder)
chain: B5 chain with W71R, K74H, M75E, S77M, V78T
notes: 10Fn3 clone, Del 1-8
For the molecule B11, in assay [3], the “Binding to 1 nM KDR, %” value came out at 17%.

B12: 4H5 PR3 (designed binder)
chain: B5 chain with D69V, G70A, W71Q, K74H, M75E, S77I, V78T
notes: Del 1-8
For B12, the “Binding to 1 nM KDR, %” value in assay [1] came out at 14%.

B13: B3 (designed binder)
chain: B5 chain with D69M, G70E, W71R, K74R, M75E, S77M, V78T
notes: 10Fn3 clone, Del 1-8
Turning to B13, in assay [2], the “Binding to 1 nM Flk-1, %” value stood at 27%. In addition, in assay [3], the “Binding to 1 nM KDR, %” value was found to be 33%.

B14: B11 (designed binder)
chain: B5 chain with D69V, G70E, W71R, K74R, M75E, S77K, V78T
notes: 10Fn3 clone, Del 1-8
For B14, in assay [3], the “Binding to 1 nM KDR, %” value was 29%.

B15: A8 (designed binder)
chain: B5 chain with W71L, M75Y, S77F
notes: 10Fn3 clone, Del 1-8
Take B15: in assay [2], the “Binding to 1 nM Flk-1, %” value amounted to 4%. Moreover, the “Binding to 1 nM KDR, %” value in assay [3] amounted to 38%.

B16: 4′H7 PR4 (designed binder)
chain: B5 chain with D69L, G70A, W71H, G73D, K74H, M75E, S77L, V78T
notes: Del 1-8
In the case of B16, the “Binding to 1 nM KDR, %” value in assay [1] was 29%.

B17: 4′H12 PR4 (designed binder)
chain: B5 chain with D69V, G70A, W71H, G73D, K74H, M75E, S77L, V78T
notes: Del 1-8
As for B17, the “Binding to 1 nM KDR, %” value in assay [1] amounted to 17%.

B18: A12 (designed binder)
chain: B5 chain with D69V, G70E, K74R, M75V, S77M, V78T
notes: 10Fn3 clone, Del 1-8
Take B18: the “Binding to 1 nM Flk-1, %” value in assay [2] came out at 10%. In addition, in assay [3], the “Binding to 1 nM KDR, %” value was found to be 40%.

B19: 4C9 PR3 (designed binder)
chain: B5 chain with D69L, G70A, W71Q, G73D, K74H, M75E, S77L, V78T
notes: Del 1-8
Take B19: in assay [1], the “Binding to 1 nM KDR, %” value turned out to be 16%.

B20: G1 (designed binder)
chain: B5 chain with D69E, W71R, K74R, M75E, S77M
notes: 10Fn3 clone, Del 1-8
Turning to B20, the “Binding to 1 nM KDR, %” value in assay [3] was found to be 22%.

B21: 3′H10 PR4 (designed binder)
chain: B5 chain with D69W, G70A, G73D, K74H, M75E, S77M, V78T
notes: Del 1-8
For B21, the “Binding to 1 nM KDR, %” value in assay [1] is 14%.

B22: 3′H9 PR4 (designed binder)
chain: B5 chain with D69H, W71P, N72Y, G73D, K74Q, M75V, S77L, V78T
notes: Del 1-8
On to B22, for which the “Binding to 1 nM KDR, %” value in assay [1] worked out at 24%.

B23: A11 (designed binder)
chain: B5 chain with D69L, G70E, G73N, K74R, M75V, S77M, V78T
notes: 10Fn3 clone, Del 1-8
For B23, the “Binding to 1 nM Flk-1, %” value in assay [2] was determined as 6%. Also, in assay [3], the “Binding to 1 nM KDR, %” value was 26%.

B24: 3′H11 PR4 (designed binder)
chain: B5 chain with D69L, G70A, W71H, K74N, M75E, S77L, V78T
notes: Del 1-8
On to B24, for which, in assay [1], the “Binding to 1 nM KDR, %” value was found to be 39%.

B25: 4′E7 PR4 (designed binder)
chain: B5 chain with D69W, G70A, W71Q, G73D, K74H, M75E, S77L, V78T
notes: Del 1-8
Take B25: the “Binding to 1 nM KDR, %” value in assay [1] is 17%.

B26: 4B11 PR3 (designed binder)
chain: B5 chain with D69V, W71Q, G73N, K74H, M75E, S77I, V78T
notes: Del 1-8
As for B26, in assay [1], the “Binding to 1 nM KDR, %” value turned out to be 15%.

B27: 4′G12 PR4 (designed binder)
chain: B5 chain with D69V, G70A, G73D, K74H, M75E, L76I, S77Y, V78T
notes: Del 1-8
Regarding B27, the “Binding to 1 nM KDR, %” value in assay [1] came out at 21%.

B28: B4 (designed binder)
chain: B5 chain with D69N, G70E, W71R, K74R, M75E, S77M, V78T
notes: 10Fn3 clone, Del 1-8
As to B28, the “Binding to 1 nM Flk-1, %” value in assay [2] is 12%. Besides, the “Binding to 1 nM KDR, %” value in assay [3] was 19%.

B29: 4′D6 PR4 (designed binder)
chain: B5 chain with D69M, G70A, W71Q, G73D, K74H, M75E, S77M, V78T
notes: Del 1-8
B29: in assay [1], the “Binding to 1 nM KDR, %” value was found to be 14%.

B30: 4′B3 PR4 (designed binder)
chain: B5 chain with D69M, G70A, W71Q, G73N, K74R, M75E, S77L, V78T
notes: Del 1-8
On to B30, for which the “Binding to 1 nM KDR, %” value in assay [1] turned out to be 42%.

B31: 4′D8 PR4 (designed binder)
chain: B5 chain with D69L, G70A, W71Q, K74H, M75E, S77Y, V78T
notes: Del 1-8
Take B31: in assay [1], the “Binding to 1 nM KDR, %” value is 26%.

B32: 4′C5 PR4 (designed binder)
chain: B5 chain with D69L, W71L, G73D, K74H, M75E, S77I, V78T
notes: Del 1-8
B32: the “Binding to 1 nM KDR, %” value in assay [1] came out at 27%.

B33: 3′H3 PR4 (designed binder)
chain: B5 chain with D69L, W71L, G73D, K74R, M75E, S77M, V78T
notes: Del 1-8
As for B33, in assay [1], the “Binding to 1 nM KDR, %” value was 36%.

B34: A7 (designed binder)
chain: B5 chain with W71P, G73N, K74R, M75E, S77I
notes: 10Fn3 clone, Del 1-8
On to B34, for which the “Binding to 1 nM Flk-1, %” value in assay [2] stood at 2%. In addition, the “Binding to 1 nM KDR, %” value in assay [3] stood at 18%.

B35: 4′H5 PR4 (designed binder)
chain: B5 chain with D69L, G70A, W71Q, K74H, M75E, S77F, V78T
notes: Del 1-8
Take B35: the “Binding to 1 nM KDR, %” value in assay [1] came to 18%.

B36: 4′G4 PR4 (designed binder)
chain: B5 chain with D69V, G70A, W71Q, G73D, K74R, M75E, S77L, V78T
notes: Del 1-8
On to B36, for which the “Binding to 1 nM KDR, %” value in assay [1] turned out to be 19%.

B37: 4′B7 PR4 (designed binder)
chain: B5 chain with D69V, G70A, W71Q, G73N, K74H, M75E, S77L, V78T
notes: Del 1-8
Turning to B37, the “Binding to 1 nM KDR, %” value in assay [1] amounted to 16%.

B38: A10 (designed binder)
chain: B5 chain with D69F, K74R, M75E, S77L, V78T
notes: 10Fn3 clone, Del 1-8
Turning to B38, the “Binding to 1 nM Flk-1, %” value in assay [2] was 4%. Moreover, the “Binding to 1 nM KDR, %” value in assay [3] was found to be 34%.

B39: 3′H1 PR4 (designed binder)
chain: B5 chain with D69F, G70A, W71Q, G73D, K74H, M75Q, S77F, V78T
notes: Del 1-8
On to B39, for which, in assay [1], the “Binding to 1 nM KDR, %” value came to 22%.

B40: 4′A5 PR4 (designed binder)
chain: B5 chain with D69L, G70A, W71Q, G73D, K74H, M75E, S77L, V78T
notes: Del 1-8
For the molecule B40, the “Binding to 1 nM KDR, %” value in assay [1] was 16%.

B41: 4′B11 PR4 (designed binder)
chain: B5 chain with D69M, G70A, W71H, G73D, K74H, M75E, S77L, V78T
notes: Del 1-8
On to B41, for which the “Binding to 1 nM KDR, %” value in assay [1] came out at 25%.

B42: 3′H8 PR4 (designed binder)
chain: B5 chain with D69V, W71H, G73D, K74R, M75E, S77I, V78T
notes: Del 1-8
For the molecule B42, the “Binding to 1 nM KDR, %” value in assay [1] worked out at 20%.

Source of the values: patent US20140179896A1 (published 2014).
